Test results: patent US9526791B2, “Weakly acidic pH-responsive peptide and liposome containing same” (Taiho Pharmaceutical Co., Ltd., priority 2012, dated 2016)
Read-outs that look alike come from different tables or passages of the source.

How the values were obtained:
[1] = CD spectra of peptide alone or peptide-introduced liposome under different pH conditions; type: physicochemical; conditions: PBS (−), peptide concentration 20 μM
Experimental: Peptide compound 1 obtained in Example 1 alone and a peptide-introduced liposome obtained according to Example 4 (each having a peptide concentration of 20 μM) were suspended in PBS (−) with different pHs, and CD (circular dichroism) spectra were recorded on a J-720WI spectropolarimeter (produced by JASCO Corporation).
The “α-helix” represents an α-helix structure, and the “random coil structure” represents a state in which a clear secondary structure is not formed.

[2] = type: physicochemical; conditions: for Calcein leakage rate (%): calcein-encapsulated liposome, 37° C., 10 minutes; for Leakage of calcein (in words): pH 6.5 (pH changed from 7.4 to 6.5)
Experimental: • (1) After a peptide-containing lipid membrane was prepared as in Example 4, a calcein (Mw: 622.55) 30-mM solution was added, and calcein-encapsulated liposome 1 was prepared as in Example 4. Unencapsulated calcein was removed by gel filtration (Sephadex G50).
To measure the leakage of the encapsulated calcein from the liposomes, the liposomes were diluted and suspended in buffers having different pHs, and then incubated at 37° C. for 10 minutes. The fluorescence (λex: 488 nm, λem: 517 nm) of the leaked calcein was measured by a plate reader (Infinite M200, produced by Tecan). The fluorescence of the leaked calcein when the liposomes were mixed with 1% Triton-X100 was regarded as complete leakage. The leakage rate was calculated by the following formula. […] Leakage rate(%)=(Fsample−FpH 7.4)/(Ftriton−FpH 7.4)×100
Fsample Fluorescence of calcein leaked from the liposomes at each pH
FpH 7.4: Fluorescence of calcein leaked from the liposomes at a pH of 7.4
Ftriton: Fluorescence of calcein when the liposomes were mixed with 1% Triton-X100.
Calcein was encapsulated in liposome 1 obtained in Example 4, and liposomes 2 and 3 obtained in Example 5, and pH responsiveness was examined as in Test Example 1.
The calcein leakage rate of the calcein-encapsulated liposomes obtained in Examples 4, 6, and 7, and Comparative Examples 4 to 6 at a pH of 7.4 and a pH of 6.5 was calculated as in Test Example 1.

[3] = Observation of liposomes into which comparative compound 3 was introduced (aggregation); type: physicochemical; conditions: pH 6.5 or less
Experimental: Comparative liposome 3 into which comparative compound 3 obtained in Comparative Example 3 had been introduced was produced according to the method described in Example 4, and calcein-encapsulated comparative liposome 3 was prepared by the same production method as in Test Example 1.
Thus, the pH-responsiveness was insufficient.

Row | Sequence | Secondary structure from CD spectrum ([1]; as the pH was reduced) | Secondary structure from CD spectrum ([1]; pH 7.4) | Calcein leakage rate (%) ([2]; pH 6.5) | Calcein leakage rate (%) ([2]; pH 7.4) | Leakage of calcein (in words) [2] | Aggregation of liposomes [3] | Calcein fluorescence on attempted encapsulation (liposome stability) ([2]; pH 7.4)
1 | HGHGLALLAHALLAHAALAHAALA [Peptide compound 1] | sequentially converted into a random coil structure | α-helix | 100% | 0% |  |  | 
2 | EGEGLALLAHALLAHAALAHAALA [Peptide compound 3] |  |  | 65% | 0% |  |  | 
3 | HGHGGGGGGGGGAHALLAHAALAH [compound 2] |  |  | 30% | 0% | remarkably reduced |  | 
4 | GHHGLALLHALHLAAAALHAAALA [Peptide compound 2] |  |  | 90% | 0% |  |  | 
5 | HGHGLALLAHALLAHAAAAL [compound 3] |  |  |  |  |  | remarkably aggregated | fluorescence intensity at the same level as that when Triton treatment was performed
6 | HHGGLLLLHHHAAAAALLLAAAAA [compound 1] |  |  | 30% | 0% | remarkably reduced |  | 
